# Source: article PMC2874204 (Cancer cell, 2010)
# Molecular target: RUNX1 Runt domain (UniProt Q01196 50-178)
# Assay: ITC
# RUNX1 Runt domain, sequence (Q01196 50-178): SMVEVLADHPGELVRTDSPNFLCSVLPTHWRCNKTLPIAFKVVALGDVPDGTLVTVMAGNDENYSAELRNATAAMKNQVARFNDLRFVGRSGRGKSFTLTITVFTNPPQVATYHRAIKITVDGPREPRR
binder,measurement,value
CBFβ-SMMHC_(d134-236) (type I CBFβ-SMMHC fusion protein) (other) MPRVVPDQRSKFENEEFFRKLSRECEIKYTGFRDRPHEERQARFQNACRDGRSEIAFVATGTNLSLQFFPASWQGEQRQTPSREYVDLEREAGKVYLKAPMILNGVCVIWKGWIDLQRLDGMGCLEFDEERAQLHEYETELEDERKQRALAAAAKKKLEGDLKDLELQADSAIKGREEAIKQLRKLQAQMKDFQRELEDARASRDEIFATAKENEKKAKSLEADLMQLQEDLAAAERARKQADLEKEELAEELASSLSGRNALQDEKRRLEARIAQLEEELEEEQGNMEAMSDRVRKATQQAEQLSNELATERSTAQKNESARQQLERQNKELRSKLHEMEGAVKSKFKSTIAALEAKIAQLEEQVEQEAREKQAATKSLKQKDKKLKEILLQVEDERKMAEQYKEQAEKGNARVKQLKRQLEEAEEESQRINANRRKLQRELDEATESNEAMGREVNALKSKLRRGNETSFVPSRRSGGRRVIENADGSEEETDTRDADFNGTKASE,Kd,~709 nM
same,stoichiometry N,1.17
